Results on one molecule are retold here after US20100150950A1, “HUMAN ANTIBODIES THAT BIND CD70 AND USES THEREOF” (Medarex, Inc., priority 2006, published 2010).

For assay [1], the system named is ARH-77 cells. Nature of the assay: ADCC fluorescence cytotoxicity assay, ARH-77. The conditions noted are these: target to effector ratio 1:50. In kind it is cell-based, human. On the procedure:
In this example, anti-CD70 monoclonal antibodies were tested for the ability to kill CD70+ cell lines in the presence of effector cells via antibody dependent cellular cytotoxicity (ADCC) in a fluorescence cytotoxicity assay.
Human effector cells were prepared from whole blood as follows. Human peripheral blood mononuclear cells were purified from heparinized whole blood by standard Ficoll-paque separation. The cells were resuspended in RPMI1640 media containing 10% FBS and 200 U/ml of human IL-2 and incubated overnight at 37° C. The following day, the cells were collected and washed four times in culture media and resuspended at 2×10^7 cells/ml. […]
The CD70+ cell lines ARH-77 (human B lymphoblast leukemia; ATCC Accession No. CRL-1621), HuT 78 (human cutaneous lymphocyte lymphoma; ATCC Accession No. TIB-161), Raji (human B lymphocyte Burkitt's lymphoma; ATCC Accession No. CCL-86) and a negative control cell line L540 (human Hodgkin's lymphoma; DSMZ Deposit No. ACC 72) were tested for antibody specific ADCC to the human anti-CD70 monoclonal antibodies using the Delfia fluorescence emission analysis as follows. […]
In this example, a defucosylated and non-defucosylated anti-CD70 monoclonal antibody was tested for the ability to kill CD70+cells in the presence of effector cells via antibody dependent cellular cytotoxicity (ADCC) in a fluorescence cytotoxicity assay […]

Assay [2] has as its system CMV activated CD70+/CD4+ cells. Nature of the assay: CMV Ag stimulated human CD4+ T cell expansion. The format is cell-based. As to conditions: 2 μg/ml, day 9. On the procedure: CMV positive pre-screened donors were cultured in AIM-V media supplemented with 10% heat-inactivated FCS at 1×10^6 cells/ml on 24-well culture plates and stimulated with 5.0 μg/ml of CMV lysate in the presence of 2 μg/ml of biotinylated 2H5, 2H5 NF or hIgG1nf control Abs. Cells were harvested on day 9 and the number of viable cells/ml in each culture was determined by counting an aliquot using a hemocytometer and trypan blue exclusion. The cells were washed in staining buffer and blocked with 5% human serum. Biotinylated 2H5, 2H5 NF, or hIgG1nf were added to an equal volume of cells at 20 μg/ml final concentration. Cells were incubated for 30 minutes, washed and stained with anti-CD4-FITC and PE-conjugated streptavidin. Cells were again incubated for 30 minutes, washed twice and then fixed and permeabilized using BD Cytofix/Cytoperm kit. The cells were washed twice in perm/wash buffer and intracellular stained with anti-INFγ-APC (BD Clone B27). […] Cells were analyzed by flow cytometry for CD70 surface and INFγ intracellular expression by gating on live CD4+ cells. The number of CD4+/CD70+ and CD4+/INFγ+ cells/ml in each condition were calculated by multiplying the percent CD70+ or INFγ+ cells in the CD4 gate by the percent of total CD4+ cells times the total number of viable cells/ml ((%CD70+ or INFγ+)×(%CD4+)×(total viable cells/ml)).

For assay [3], the system named is SU-DHL-6 cells. Put plainly: ADCC fluorescence cytotoxicity assay, SU-DHL-6. In kind it is cell-based, human. As to conditions: target to effector ratio 1:50. Here is the method: In this example, a defucosylated and non-defucosylated anti-CD70 monoclonal antibody was tested for the ability to kill CD70+cells in the presence of effector cells via antibody dependent cellular cytotoxicity (ADCC) in a fluorescence cytotoxicity assay
Human Anti-CD70 monoclonal antibody 2H5 was defucosylated as described above. Human effector cells were prepared from whole blood as follows. Human peripheral blood mononuclear cells were purified from heparinized whole blood by standard Ficoll-paque separation. The cells were resuspended in RPMI1640 media containing 10% FBS (culture media) and 200 U/ml of human IL-2 and incubated overnight at 37° C. The following day, the cells were collected and washed once in culture media and resuspended at 2×10^7 cells/ml. […]
The CD70+ cell lines ARH-77 (human B lymphoblast leukemia; ATCC Accession No. CRL-1621), MEC-1 (human chronic B cell leukemia; DSMZ Accession No. ACC 497), SU-DHL-6 (human B cell lymphoma, DSMZ Accession No. Acc572), IM-9 (human B lymphoblast; ATCC Accession No. CCL-159) and HuT 78 (human cutaneous lymphocyte lymphoma; ATCC Accession No. TIB-161), were tested for antibody specific ADCC to the defucosylated and non-defucosylated human anti-CD70 monoclonal antibody 2H5 using the Delfia fluorescence emission analysis as follows. […]

B1: 2H5 NF: 2H5 HuMAb lacking fucosyl residues, expressed in CHO cell line Ms704-PF (antibody, V domains shown)
VH: QVQLVESGGGVVQPGRSLRLSCAASGFTFSSYIMHWVRQAPGKGLEWVAVISYDGRNKYYADSVKGRFTISRDNSKNTLYLQMNSLRAEDTAVYYCARDTDGYDFDYWGQGTLVTVSS
VL: EIVLTQSPATLSLSPGERATLSCRASQSVSSYLAWYQQKPGQAPRLLIYDASNRATGIPARFSGSGSGTDFTLTISSLEPEDFAVYYCQQRTNWPLTFGGGTKVEIK
As for B1, the “ADCC, % lysis of ARH-77” value in assay [1] is recorded as “increased percentage of specific lysis”. In assay [2], the “depletion of CMV activated CD70+/CD4+ cells” value was determined as 97%. Further, the “ADCC, % specific lysis of SU-DHL-6” value in assay [3] is given as “increased percentage of specific lysis”.
